Measured values published in the RNAGym collection of RNA variant scans (doi:10.1073/pnas.2313332121).
Fewer inactive variants are shown than the library holds.

B1: TPR 5TU (parent)
chain: GGAUCUUCUCGAUCUAACAAAAAAGACAAAUCUGCCACAAAGCUUGAGAGCAUCUUCGGAUGCAGAGGCGGCAGCCUUCGGUGGCGCGAUAGCGCCAACGUUCUCAACUAUGACACGCAAAACGCGUGCUCCGUUGAAUGGAGUUUAUCAUG

Variants of: B1
Experiment: polymerase ribozyme fitness, log enrichment relative to wild type (log ratio); higher = more active; in vitro selection for triplet polymerase activity
How it was run: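 One round of in vitro selection, in triplicate, was applied to PCR-built, transcribed mutant libraries of each subunit of a heterodimeric triplet polymerase ribozyme. The steps were annealing with a biotinylated primer, partner subunit and triplets, incubation frozen at −7 °C, gel excision of extended constructs, streptavidin-bead capture and RT-PCR. Fitness is the logarithm, base 2, of genotype enrichment over wild-type enrichment from inverse-variance-weighted replicate averages of Illumina-sequenced inputs and outputs, keeping genotypes with ≥10 input reads and ≥1 read per output.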

Variant	polymerase ribozyme fitness (log ratio)
U53A G94C	-1.3
U55A U56G G80A	-1.37
U55A C93A	-2.96
C54A U55G A107U U109C G117A C118U A121C	≤ -4.2
U53A G86C A91U	≤ -4.2
U53A G152U	-3.33
U53G A73G C85U G126U	-2.37
C54A C75U C93U	-2.29
C54G A89U A147C	-2.1
C54U G59C G83A G117U	-0.252
C54A G59A C87U	-1.95
U53A U55A C96A U127C A138U	≤ -4.2
U53A U82G G100A	≤ -4.2
U53G C79A C87A U102G	≤ -4.2
C54U G59C A60U A66C	≤ -4.2
C54U G92C A121U	-0.244
U55A C105A	-0.692
U55A C105G	-1.73
U53C C57A C95U A98G U104A	-0.528
C54A A121U G141C	-1.65
U55A A115U U127G U135A U145A	-1.32
U53G A73C G83U G117U	≤ -4.2
U53A G84A	-2.38
U53A G84U	-1.26

Variant	polymerase ribozyme fitness (log ratio)
U55A C87U C93U	-4.13
U55A G67C C85A G86U G124U	≤ -4.2
U53A G71A C75G C76U G86A A107U C108U	≤ -4.2
C54G G83U G141U	-1.56
C54G C76A C85G	-2.78
U55A C96U U127C U134C	-3.3
C54G C93A	-4.19
C54A U101G C108U A115U G117U C129U G133A	≤ -4.2
U55A C76A A115G A121C	-1.09
C54U G92U	-0.757
C54U G92A	-3
C54A U144A	-1.74
C54U C75G	-3.81
C54A C57G C87U A150G	-3.99
C54U C79U A115G A120G A122U G141U	≤ -4.2
U55A C76G G100C U109A A120G	≤ -4.2
C54U C95U G133C	-2.19
U55G A60G G133U G136C	≤ -4.2
U55A G84U A113C	-3.62
C54U G84U	-2.22
U55A G92A	-2.69
C54U U56A A60U G70U A115G A150C	≤ -4.2
C54U A73G G83U C95G G100U U135A	≤ -4.2
U53G	-1.68

Variant	polymerase ribozyme fitness (log ratio)
U53C	-0.375
U55A C95U	-0.137
U55A U56A U78C G83U A89U	-0.955
U55A C95U C105A C108G	≤ -4.2
C54G C95G A107U C108G G143A U145C	≤ -4.2
C54U U148C	-1.84
C54A U56G C95A A120G	-1.33
U55A C76A	-0.81
U55A C85U	-0.644
C54G C63G C93U A115U C149G	≤ -4.2
C54A G86U A110C	≤ -4.2
C54A C85U C149G G152U	-4.15
U53A G136A	-0.321
U55A C125A G141A	-4.12
U53A U61A A106U C129U	-3.27
U53C G58A C99G	-0.95
C54A U61A C93G C149G	≤ -4.2
U55A C87G U101G G143A	≤ -4.2
C54A A91U U109C G140U U146C	≤ -4.2
U55A A60C G62A G81A C85U G133C	≤ -4.2
C54U C95U A98G A142U	-1.61
U55A A91U G136A	≤ -4.2
U55A C57U G81A G84A	-0.555
C54G C108U	-4.19

Variant	polymerase ribozyme fitness (log ratio)
U55A C85U C103U	-0.7
C54U C93U A98G	-1.41
C54U C85G A91U	≤ -4.2
C54A C96U A113G	-3.11
U53A G83A C103U C132U	-3.25
U55A C79U G83A C93A A97C A138U	≤ -4.2
U55A G83A	-0.501
C54U C57U G100C	≤ -4.2
U55A G100C G126U G128C	≤ -4.2
C54G A60G C95G	-2.44
C54A G92A	≤ -4.2
U55A C63U C85U C105U	0.719
U53G C75G C76U C96A A115C	≤ -4.2
U53A U102G G126A	-3.76
C54U A64G C116G U139G	≤ -4.2
C54U A66U C85U	≤ -4.2
C54A G70C G88A C93G U134A U146A	≤ -4.2
U55A U61C G94U	≤ -4.2
U53C C54U C96A A120U	-0.901
C54U C85G C93U A97C A137U U139G	≤ -4.2
U55C U61A U82A	-2.36
U55C G74C G124A	-4.12
C54A U102A	-2.71
C54G C99G G136U	-3.14

Variant	polymerase ribozyme fitness (log ratio)
C54U C96A A97G	-1.12
U55C U127A U139G	-3.31
C54G A89C C123G C131A	≤ -4.2
C54G G68U C87A U104G	≤ -4.2
U53A G128C A137C U148G C149G	≤ -4.2
U53C A150G	-1.01
C54U C96U	-0.41
C54U C96G	-0.994
U53C G58C C93U C96G G140A	-4.1
C54A A115C	-1.87
C54G G83A C96U A110G C132U A142C	≤ -4.2
U53G C54A	-2.07
U55A C96G G143A	-2.1
U55C C93G	-3.57
U55C C95U C103A	-1.54
U53A G136U U144G	-1.85
U55A U146G	-0.637
U55A U146A	-0.393
U53G G141C	-2.53
U53C U55A C99U U111C	≤ -4.2
C54A A64C C85A G92U A121U C125G U134G U139G	≤ -4.2
C54G C75U G94A	-1.51
U55A C76A G84U C116U A137U	≤ -4.2
C54G C75G C87A	≤ -4.2

Variant	polymerase ribozyme fitness (log ratio)
U55A C69G U146A	-3.62
C54G G86U	-3.24
U55A G84A G143A	-0.776
U53A G126A	-0.879
U53A G126U	0.134
U55A G88U	-4.14
U53C C118U C129G G141A	≤ -4.2
C54G G94A	-1.68
C54A U56A C85G U101C U134A U148C	≤ -4.2
U53A U56G A115U A120G	-2.77
U55C A98G A113U A142G	-2.98
U53A U148C	-3.4
U53A U148A	-3.17
U55C C85A A91C G126A	-4.06
C54U A115U	-2.4
U55A G81A	-1.9
U53G C63U G80C G81C G84U G100U	≤ -4.2
C54G U55A G58U	0.0801
C54A G94C G141A	-3.13
C54A U82C U146C	-0.537
U53A G94C C105A C118U	≤ -4.2
C54A U56A C93A A98U A138C U151G	≤ -4.2
C54A C87G A98G	≤ -4.2
C54U C93A A110G A137G G140C	-4.1

Variant	polymerase ribozyme fitness (log ratio)
C54U G81A G86U C105A A147U	-4.16
U55G A89U C132G	-3.98
U55A C79U	-2.74
U55A A121C	-0.369
U53G U61A	-3.21
U55A U56A G71A U82G U102G	≤ -4.2
C54U G86C	-3.47
U55A A89C A119C	-0.892
U55G A89G G94A A119U	-1.9
C54U A89C C131U	0.237
U55G A91U A106G G117U	-4.18
C54A U56G U78G U82G C114A U144C	≤ -4.2
C54A G94U C105U	-2.47
C54U U55A	-0.284
C54A C105G U130C	-2.7
U53A G83A	-1.64
U55C C72U A150U	0.059
U55A U56A A66C G70C C108U	≤ -4.2
C54A C96G A97C G143C	≤ -4.2
U53G A64U C69U C76U A98U C108A	≤ -4.2
U53A G81C C85G C108U A138G A147G A150U G152U	-3.91
C54U C72U A91U C95G A98C C103A A119G A121G	≤ -4.2
U55A G58C A97G	0.512
